These results are taken from IntAct's records for PubMed 21262861.

Chain of Short stature homeobox protein (Homo sapiens), O15266 A233E (O15266 whole entry A233E): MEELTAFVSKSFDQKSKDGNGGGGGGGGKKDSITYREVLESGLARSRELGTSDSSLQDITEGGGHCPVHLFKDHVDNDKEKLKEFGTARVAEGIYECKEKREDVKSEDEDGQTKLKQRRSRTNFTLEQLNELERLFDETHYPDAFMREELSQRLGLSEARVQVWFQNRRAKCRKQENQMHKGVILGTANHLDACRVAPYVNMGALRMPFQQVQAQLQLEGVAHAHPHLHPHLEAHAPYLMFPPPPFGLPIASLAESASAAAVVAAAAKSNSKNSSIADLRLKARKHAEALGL
Chain of Short stature homeobox protein (Homo sapiens), O15266 R168Y (O15266 whole entry R168Y): as the sequence (O15266 whole entry A233E) above, with R168Y, E233A counted along it
Chain of Short stature homeobox protein (Homo sapiens), O15266 K116E (O15266 whole entry K116E): as the sequence (O15266 whole entry A233E) above, with K116E, E233A counted along it
Chain of Short stature homeobox protein (Homo sapiens), O15266 L132V (O15266 whole entry L132V): as the sequence (O15266 whole entry A233E) above, with L132V, E233A counted along it
Chain of Short stature homeobox protein (Homo sapiens), O15266 R173C (O15266 whole entry R173C): as the sequence (O15266 whole entry A233E) above, with R173C, E233A counted along it
Chain of Short stature homeobox protein (Homo sapiens), O15266 D278A (O15266 whole entry D278A): as the sequence (O15266 whole entry A233E) above, with E233A, D278A counted along it
Chain of Short stature homeobox protein (Homo sapiens), O15266 R195P (O15266 whole entry R195P): as the sequence (O15266 whole entry A233E) above, with R195P, E233A counted along it
Chain of Short stature homeobox protein (Homo sapiens), O15266 A170P (O15266 whole entry A170P): as the sequence (O15266 whole entry A233E) above, with A170P, E233A counted along it

The target in this experiment is sox6_human SOX6 (UniProt P35712).
Chain of sox6_human SOX6 (P35712 whole entry): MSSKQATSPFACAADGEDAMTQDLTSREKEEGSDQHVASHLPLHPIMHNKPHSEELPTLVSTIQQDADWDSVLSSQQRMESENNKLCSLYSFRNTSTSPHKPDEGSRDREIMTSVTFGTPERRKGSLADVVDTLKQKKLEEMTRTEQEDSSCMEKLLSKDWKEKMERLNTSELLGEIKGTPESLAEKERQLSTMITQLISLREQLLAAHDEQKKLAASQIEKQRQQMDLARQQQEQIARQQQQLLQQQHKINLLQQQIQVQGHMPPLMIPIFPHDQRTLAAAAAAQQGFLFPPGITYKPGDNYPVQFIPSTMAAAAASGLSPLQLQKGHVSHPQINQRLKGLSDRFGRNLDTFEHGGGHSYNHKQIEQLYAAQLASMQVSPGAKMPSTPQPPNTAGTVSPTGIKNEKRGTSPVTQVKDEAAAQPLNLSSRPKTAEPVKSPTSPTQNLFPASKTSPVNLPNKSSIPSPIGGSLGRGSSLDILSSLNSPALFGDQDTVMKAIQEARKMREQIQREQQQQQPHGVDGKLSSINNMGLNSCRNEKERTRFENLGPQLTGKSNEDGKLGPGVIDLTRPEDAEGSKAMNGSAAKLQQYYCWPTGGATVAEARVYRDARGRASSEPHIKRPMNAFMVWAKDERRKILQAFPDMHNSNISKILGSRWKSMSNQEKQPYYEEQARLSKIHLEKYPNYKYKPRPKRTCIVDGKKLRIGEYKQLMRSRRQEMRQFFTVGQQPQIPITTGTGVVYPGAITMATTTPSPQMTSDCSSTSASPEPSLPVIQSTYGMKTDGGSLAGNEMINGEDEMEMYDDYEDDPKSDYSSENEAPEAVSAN
For the substance “Short stature homeobox protein (Homo sapiens), O15266 A170P”, the “effect of a mutation on the interaction” value is given as “disrupting interaction”.
The entry for “Short stature homeobox protein (Homo sapiens), O15266 A233E” is “decreasing interaction”.
The entry for “Short stature homeobox protein (Homo sapiens), O15266 D278A” is “decreasing interaction”; for “Short stature homeobox protein (Homo sapiens), O15266 K116E” it is “decreasing interaction”; for “Short stature homeobox protein (Homo sapiens), O15266 L132V” it is “disrupting interaction”.
The entry for “Short stature homeobox protein (Homo sapiens), O15266 R168Y” is “decreasing interaction”; for “Short stature homeobox protein (Homo sapiens), O15266 R173C” it is “decreasing interaction”; for “Short stature homeobox protein (Homo sapiens), O15266 R195P” it is “decreasing interaction”.
